Measurements published in the supplement of paper PMC9170038.

Tested on: MS2 coat protein
Test: apparent KD of MS2 coat protein; higher = weaker reporter binding
Settings: Eterna round: R107
Procedure, shortened: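 Each design's apparent KD comes from the median of binding-curve fits to its normalised clusters. Those clusters carried RNA switches transcribed on-chip from Illumina sequencing clusters. SNAP-549-labelled MS2 coat protein was titrated onto them in twofold steps (0.7 or 1.5 nM to 3 µM; per step 0.8–1.5 h down to 10–20 min). Conditions were 100 mM Tris-HCl pH 7.5, 80 mM KCl, 4 mM MgCl2, without or with constant ligand.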

[1] = input ligand: theophylline 20 uM
[2] = input ligand: theophylline 2 mM
[3] = input ligand: tryptophan 2.4 mM

Sequence | apparent KD of MS2 coat protein (input ligand: arginine 13.2 mM) [nM] | apparent KD of MS2 coat protein (input ligand: none) [nM] | apparent KD of MS2 coat protein [1] [nM] | apparent KD of MS2 coat protein [2] [nM] | apparent KD of MS2 coat protein [3] [nM]
UAUGUGAUAGUCGUACUCUCACACUGAGAAGGAGCGCGAUAGUUCGCAGGUAGGUCGCUCAGUUAUACAUGAGGAUCACCCAUGU [Isrice] | 25.3 | 32.6 | 32.9 | 32.4 | 26.4
UAUUUGGUGCGCGAGCGUUGGAUAAUUGAUACCAGUGAAGAAGAGCGCCCUUGGCAGCGAAUCCUAACAUGAGGAUCACCCAUGU [5.S] | 38.2 | – | 63.2 | – | 41.4
UCACAUGAGGAUCACCCAUGUGUCAGAGAAGGAGCGGCCGCAAGGCCAGGUAGGUCGCUCAGGUAGCGUGAGGAUCACCCGUGUG [#1 Exclusion - Arginine A Attempt #10 (Inspired by cyborg)] | 23.6 | 118 | 213 | 141 | 117
UCACAUGAGGAUCACCCAUGUGUCAGAGAAGGAGCGGCCGCAAGGCCAGGUAGGUCGCUCGGGUAGCGUGAGGAUCACCCGUGUG [#1 Exclusion - Arginine A Attempt #11 (Inspired by cyborg)] | 31.8 | 65.8 | 175 | 77.5 | 45.1
UCACUCUGGGUGAAUUCCGGAGAUGUGGAAGGAGCGGACGAAAGUCCAGGUAGGUCGCCAUCGGACAUGAGGAUCACCCAUGUAC [Same State - Arginine A (Freestyle 23)] | 71.8 | 89 | 98 | 131 | 68.5
UCAUGAGUUUCGGAUACCAGUGAUGUCGAUACAUGAGGAUCACCCAUGUUAGAGGAUGUACACCCUUGGCAGCCGGGUGUGGCGG [ooimullin] | 33.7 | 143 | 102 | 102 | 113
UCCGCGGAGACGGCCGCCACUGAGUGAGAAGUCGUGCUCUAACUACAUGAGGAUCACCCAUGUCCCAGGACCGGGUCGAAGUGUU [theeternabot_sameState_MS2_Trp_B_36] | 97.4 | – | 235 | 208 | –
UCCGGACGUUCGGCCGCCACUAAUUUACAUGAGGAUCACCCAUGUGCCAGUGGUCCGCAGAGUAAUAGGACCGGGAACCUUGGCU [theeternabot_exclusion_MS2_Trp_B_10] | 24.4 | – | 30.8 | 26.3 | –
UCCUACACGGAGACGUGUAGGAGUAAUGAUACCAGCAUGGAGACAUGCCCUUGGCAGCGUUACAUGAGGAUCACCCAUGUGGUGC [ETHA #7] | 14.7 | 16.3 | 26.2 | 270 | 17.7
UCCUGCAGAGCGGCCGCCACUGUAUUGCGUGAGGAUGACCCAACAUGAGGAUCACCCAUGUUGUUUAGGACCGGGCUUGCCACCA [lkpmullin] | 16.7 | 14.2 | 18.5 | 18.1 | 18.2
UCGCCCAGGUAGGAUUGAUGGGAUAUGGAAGGAGCGCUGAUGCCAGCAGGUAGGUCGCCAACGGACAUGAGGAUCACCCAUGUAC [Same State - Arginine A (Freestyle 5)] | 16.5 | 18.7 | 34.6 | 28.3 | 25.2
UCGCGAUAGAGAAGGAGCGUCAACACCACUUAACAUGAGGAUCACCCAUGUGUUACUUUAAGACAGGUAGGUCGCUCUAGCGCUU [JR_Nu_ExcArginiB_Sub027] | 12.7 | 12.4 | 16.5 | 14.2 | 11.5
UCGCUCGCAGAAAUGCGAGCGAGUUGCGAUACCAGCCCGGAAACGGGCCCUUGGCAGCGCACAUGAGGAUCACCCAUGUCAUGUU [Exclusion - Theophylline A Attempt #2 (HarryS)] | 17.3 | – | 24.7 | – | 18.1
UCGCUCUGGGUGAAUCCCGGAGAUGUGGAAGGAGCGGACGAAAGUCCAGGUAGGUCGCCAUCGAACAUGAGGAUCACCCAUGUAC [Same State - Arginine A (Freestyle 25)] | 13.3 | 88.8 | 338 | 60.5 | 21.8
UCGGGCAGAGCGGCCGCCACUGUUUGGCAUGCGGAUGAAGGAACAUGAGGAUCACCCAUGUAGAUUAGGACCGGGCUUUCGGAGA [cctchmullin] | 19.3 | 21.4 | 32.8 | 25.5 | 22.2
UCGUGUAAAACGGAUACCAGUGAGAAGGAUACAUGAGGAUCACCCAUGUGAGUUGAUCCACACCCUUGGCAGCUGUAUAUAUCUA [ozomullin] | 105 | – | 185 | – | 122
UCGUUUUAGUCGGCCGCCACUGAACUCAUGUUCAACAUGAGGAUCACCCAUGUACCUUAUUUUAACAGGACCGGGACGUAAUAGA [JR_ExcTryptoB_Sub001] | 165 | – | 264 | 258 | –
UCUCACAUGAGGAUCACCCAUGUUAAGGCCCGAGGACCGGUACGGCCGCCACUCGUUGGAAGCCGGUAACGUACGAAUCUUCCGU [theeternabot_sameState_MS2_Trp_A_18] | 16.2 | – | 26.9 | 22.9 | –

Sequence | apparent KD of MS2 coat protein (input ligand: arginine 13.2 mM) [nM] | apparent KD of MS2 coat protein (input ligand: none) [nM] | apparent KD of MS2 coat protein [1] [nM] | apparent KD of MS2 coat protein [2] [nM] | apparent KD of MS2 coat protein [3] [nM]
UCUUUCUAUAGUGAUACCAGACGUACAUGAGGAUCACCCAUGUUACAUUCUUGGUUAAAAGUCCCUUGGCAGCACGAUUUGUUCG [JR_Nu_ExcTheophyB_Sub027] | 9.7 | – | 10.9 | – | 10.3
UCUUUCUAUGUAGAUACCAGCAUGUUAUAUUUCUAAUGACAUGAGGAUCACCCAUGUAAAUGCCCUUGGCAGCUGCGUUUUCUUU [SSTHB #5] | 14.2 | – | 20.2 | – | 15.2
UGACAUUGCUCAGAUACCAGACAUGAGCAUCAGCCAUGUGCCAACAAGUACAUAAUAAAAGUCCCUUGGCAGCUGAGCAAUGUCU [TheoBX 20 #MS2Left #AlternativeMS2 #Theo2] | 13.2 | 11.3 | 16.2 | 68.4 | 11.3
UGACAUUGCUCAGAUACCAGACAUGAGGAUCACCCAUGUACCAAGGUAACCGAAAGGCAUGUCCCUUGGCAGCUGAGCAAUGUCU [TheoBX 2 #MS2Left #Theo2 #StaticStem] | 13 | – | 18.9 | – | 11.9
UGACAUUGCUCAGAUACCAGACAUGAGGAUCACCCAUGUACCAAGGUAAGAAAAUAACAUGUCCCUUGGCAGCUGAGCAAUGUCU [First try #MS2Left #Theo2] | 16.4 | – | 38.4 | – | 14.6
UGACAUUGCUCAGAUACCAGACUUGAGGAACACCCAAGUGCCAACAAGUAUAUAAUAAAAGUCCCUUGGCAGCUGAGCAAUGUCU [TheoBX 19 #MS2Left #AlternativeMS2 #Theo2] | 42.8 | 47.8 | 105 | 318 | 45.3
UGACAUUGCUCAGAUACCAGACUUGAGGAUCACCCAAGUGCCAACAAGUAUAUAAUAAAAGUCCCUUGGCAGCUGAGCAAUGUCU [TheoBX 18#MS2Left #AlternativeMS2 #Theo2] | 42.7 | 28 | 28.6 | 137 | 17.5
UGACAUUGCUGCGAUACCAGACAUGAGGAUCACCCAUGUACCAAGGUAAAGAAAUAACGUGUCCCUUGGCAGCGCAGCAAUGUCU [MAT - Exclusion Theophlline B - Mod of Eli - D8] | 11.5 | – | 13.9 | – | 10.1
UGACCCUUCACGGCCGCCACUCAUUUUAAGUAGAGAGAGUACAUGAGGAUCACCCAUGUGAGAGAGAGGACCGGGUGAGAUGUUG [ss-trypB-0(N)] | 15.5 | 16.3 | 30.8 | 16.8 | 15.4
UGAGUUAGACAAAAGUCUAGCUCUGGUGAAGGAGCGUCCGAAAGGACAGGUAGGUCGCACCACAUGAGGAUCACCCAUGUUCCUU [ArgAS 10 #OpenEnded] | 112 | 227 | 192 | 323 | 216
UGAGUUAGACAAAAGUCUAGCUCUGGUGAAGGAGCGUCCGAAAGGACAGGUAGGUCGCACCACCUGAGGAUCACCCAGGUUCCUA [ArgAS 14 #OpenEnded #AlternativeMS2] | 28.5 | 42.1 | 29.8 | 57.2 | 38.9
UGAUAUAUGCGAAGGAGCGGGAAAUAUAUAUAUAUAAUCCUAACAUGAGGAUCACCCAUGUCCCAGGUAGGUCGCGCAUAUAUUG [12.D] | 58.7 | 64.8 | 78.5 | 77.1 | 59.7
UGAUCCUACAGAGAUACCAGUGCCACUAAAUAACUAAACACAUGAGGAUCACCCAUGUAACACCCUUGGCAGCUCAACUAAAGGG [Same State Theophylline B GF16] | 19.7 | – | 25.5 | – | 26.8
UGAUCCUACAGAGAUACCAGUGCCACUGAGUGACCAGACACAUGAGGAUCACCCAUGUAACACCCUUGGCAGCUCAACUAAAGGG [Same State Theophylline B GF17] | 16.2 | – | 20.5 | – | 21.4
UGAUCCUACAGAGAUACCAGUGCCGCUAGAUAACUAUGCACAUGAGGAUCACCCAUGUAACACCCUUGGCAGCUCAACUAAAGGG [Same State Theophylline B GF20] | 42.5 | – | 127 | – | 79.7
UGAUGGUGCUGAAGGAGCGUGUAAGAACAAGAACAUGAGGAUCACCCAUGUAUUAAUUUAACACAGGUAGGUCGCGGUGUUAUUG [11.L] | 30.5 | 25.4 | 42.5 | 45.8 | 19.7
UGCCGAGACGUGGAUUACCCGUGUACCGAAGGAGCGCCCGAAAGGGCAGGUAGGUCGCGGAGGACAUGAGGAUCACCCAUGUCGA | 37.3 | 52.1 | 93.5 | 65 | 83.7
